# Reference: paper PMC7644594
# Molecular target: EPHA2 tagged with a fluorescent protein for FRET (EPHA2-mClover3, EPHA2-mRuby3) (human) (UniProt P29317)
# Experiment: FRET or BRET
substance,measurement,value
"EPHA2 tagged with a fluorescent protein for FRET (EPHA2-mClover3, EPHA2-mRuby3) (from UniProt P29317 24-976) (receptor)",N-FRET,0.347
